Laboratory results taken from patent US20200392225A1 (Novartis, published 2020).
Blank lines part the entries; values can stand above or below the binder they belong to.

Columns and labels:
[1] = target: T1, rat NPR1-ANP complex (rat); assay: ELISA, IgG titrated on the antigen with 250 fold molar excess of ANP [cont.]
T1 construct: Rat receptor antigen measured in the presence of ANP; also called rNPR1 + ANP; rNPR1-ANP-complex

[2] = target: T2, constitutively active human NPR1 mutant (W74R), recombinant antigen (human, UniProt P16066 33-473); assay: ELISA, IgG titrated on the antigen without ANP
T2 construct: also called W74R hNPR1
T2 sequence: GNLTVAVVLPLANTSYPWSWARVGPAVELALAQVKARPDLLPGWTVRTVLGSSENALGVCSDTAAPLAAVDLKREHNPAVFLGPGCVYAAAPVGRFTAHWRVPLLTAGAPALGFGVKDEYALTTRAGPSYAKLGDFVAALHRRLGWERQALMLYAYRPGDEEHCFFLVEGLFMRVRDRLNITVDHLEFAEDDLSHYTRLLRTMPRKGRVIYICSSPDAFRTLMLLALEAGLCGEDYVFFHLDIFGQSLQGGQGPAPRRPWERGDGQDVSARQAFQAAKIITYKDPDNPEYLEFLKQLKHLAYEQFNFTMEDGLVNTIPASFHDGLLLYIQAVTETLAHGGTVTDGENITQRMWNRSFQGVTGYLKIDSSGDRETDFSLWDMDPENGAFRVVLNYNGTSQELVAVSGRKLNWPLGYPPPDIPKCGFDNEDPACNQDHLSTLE

[3] = target: T3, human NPR1 expressed on CHO-K1 cells in the presence of ANP (human, UniProt P01160 124-151); assay: flow cytometry, hNPR1 expressing CHO-K1 cells with saturating ANP [cont.]
T3 construct: also called hNPR1 CHO K1 + 100 nM ANP
T3 sequence: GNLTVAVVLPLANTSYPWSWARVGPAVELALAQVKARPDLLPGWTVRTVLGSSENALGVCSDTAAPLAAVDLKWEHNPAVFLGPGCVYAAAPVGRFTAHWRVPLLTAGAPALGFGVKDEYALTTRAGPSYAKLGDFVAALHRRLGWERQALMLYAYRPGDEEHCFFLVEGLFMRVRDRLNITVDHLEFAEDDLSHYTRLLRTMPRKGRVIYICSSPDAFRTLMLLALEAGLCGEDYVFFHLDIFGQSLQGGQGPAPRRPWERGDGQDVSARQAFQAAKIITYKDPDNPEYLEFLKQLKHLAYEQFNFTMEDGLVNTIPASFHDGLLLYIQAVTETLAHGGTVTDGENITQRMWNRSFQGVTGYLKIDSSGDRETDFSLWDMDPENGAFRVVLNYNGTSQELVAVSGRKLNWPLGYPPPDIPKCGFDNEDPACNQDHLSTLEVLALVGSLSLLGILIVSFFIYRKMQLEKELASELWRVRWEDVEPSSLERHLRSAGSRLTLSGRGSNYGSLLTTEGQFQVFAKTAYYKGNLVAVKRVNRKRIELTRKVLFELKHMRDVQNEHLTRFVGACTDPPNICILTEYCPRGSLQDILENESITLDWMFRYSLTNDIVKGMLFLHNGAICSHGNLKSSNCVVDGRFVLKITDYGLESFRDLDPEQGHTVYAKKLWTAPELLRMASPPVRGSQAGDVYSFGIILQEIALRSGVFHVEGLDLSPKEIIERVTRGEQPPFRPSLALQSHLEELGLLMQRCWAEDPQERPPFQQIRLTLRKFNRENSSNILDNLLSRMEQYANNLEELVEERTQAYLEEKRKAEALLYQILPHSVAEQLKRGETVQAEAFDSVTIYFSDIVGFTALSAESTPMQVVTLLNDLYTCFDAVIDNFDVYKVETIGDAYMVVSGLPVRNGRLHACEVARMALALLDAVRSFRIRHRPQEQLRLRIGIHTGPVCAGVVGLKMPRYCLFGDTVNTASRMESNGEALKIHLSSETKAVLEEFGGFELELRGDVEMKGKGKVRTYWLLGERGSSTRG
T3 sequence (peptide): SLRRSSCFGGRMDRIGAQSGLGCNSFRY

[4] = target: T4, human NPR1-ANP complex (human, UniProt P01160 124-151, limits assumed); assay: FRET assay on hNPR1, competitor Cy5-labeled ANP (half-maximal rise of the ANP signal) [cont.]
T4 construct: Receptor antigen measured in the presence of ANP; also called hNPR1 + ANP; hNPR1-ANP-complex
T4 sequence: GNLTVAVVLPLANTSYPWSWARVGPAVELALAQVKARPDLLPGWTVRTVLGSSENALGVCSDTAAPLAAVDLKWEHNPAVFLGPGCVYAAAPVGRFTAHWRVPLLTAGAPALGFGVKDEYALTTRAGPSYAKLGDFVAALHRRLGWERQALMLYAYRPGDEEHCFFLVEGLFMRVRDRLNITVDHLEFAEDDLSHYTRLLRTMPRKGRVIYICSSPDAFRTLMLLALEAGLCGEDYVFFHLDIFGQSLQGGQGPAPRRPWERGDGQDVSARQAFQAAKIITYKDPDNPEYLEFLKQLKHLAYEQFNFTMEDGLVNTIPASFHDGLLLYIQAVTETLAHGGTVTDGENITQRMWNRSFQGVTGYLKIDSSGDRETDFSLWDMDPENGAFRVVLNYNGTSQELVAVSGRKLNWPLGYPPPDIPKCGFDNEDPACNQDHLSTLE
T4 sequence (peptide): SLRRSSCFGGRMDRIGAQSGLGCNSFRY

EC50 (read off the curve) [1]: ~0.2 nM
B1: XX07 IgG (antibody, V domains shown)
VH: QVQLLESGGGLVQPGGSLRLSCAASGFTFSSYWMNWVRQAPGKGLEWVSAISSDGSYTYYADSVKGRFTISRDNSKNTLYLQMNSLRAEDTAVYYCARDRYSMIYSYGAGAFDYWGQGTLVTVSS
VL: DIQMTQSPSSLSASVGDRVTITCRASQGISSYLAWYQQKPGKAPKLLIYTASTLQSGVPSRFSGSGSGTDFTLTISSLQPEDFATYYCQQIWTVPRTFGQGTKVEIKR
notes: also called XX07_LALA

EC50 (read off the curve) [2]: ~2 nM
B2: YY02 IgG (YY02_LALA) (antibody, V domains shown)
VH: EVQLVESGGGLVKPGGSLRLSCAASGFTFSSYSMNWVRQAPGKGLEWVSSISSSSSYIYYADSVKGRFTISRDNAKNSLYLQMNSLRAEDTAVYYCARSGYRGVYGFDYWGQGTLVTVSS
VL: DIQMTQSPSSVSASVGDRVTITCRASQGISSWLAWYQQKPGKAPKLLIYAASSLQSGVPSRFSGSGSGTDFTLTISSLQPEDFATYYCQQYYHSPLTFGQGTKVEIKR

EC50 (read off the curve) [3]: ~0.9 nM | EC50 (read off the curve) [4]: ~0.5 nM
B3: XX12 IgG (antibody, V domains shown)
VH: QVQLLESGGGLVQPGGSLRLSCAASGFTFSSYWMNWVRQAPGKGLEWVSAISSDGSYTYYADSVKGRFTISRDNSKNTLYLQMNSLRAEDTAVYYCARDRYSMIYSYGAGAFDYWGQGTLVTVSS
VL: DIQMTQSPSSLSASVGDRVTITCRASQGISSYLAWYQQKPGKAPKLLIYTASTLQSGVPSRFSGSGSGTDFTLTISSLQPEDFATYYCQQIWMAPRTFGQGTKVEIKR
notes: also called XX12_LALA
